{"source": "the PETadex activity labels (doi:10.1186/s13568-014-0044-9)", "proteins": {"B1": {"name": "unnamed (protein)", "chain": "MKRTLKRALSLLPAAALAASALVAASPAQAAANPYQRGPNPTEASITAARGPFNTAEITVSRLSVSGFGGGKIYYPTTTSEGTFGAIAISPGFTAYWSSLEWLGHRLASQGFVVIGIETNTTLDQPDQRGQQLLAALDYLTQRSAVRDRVDASRLAVAGHSMGGGGSLEAAKARTSLKAAIPLAPWNLDKTWPEVRTPTLIIGGELDAVAPVATHSIPFYNSLSNAPEKAYLELDNASHFFPNITNTQMAKYMIAWMKRFIDDDTRYTQFLCPPPSTGLLSDFSDARFTCPM"}, "B2": {"name": "unnamed (protein)", "chain": "MSLRKSFGLLSATAALVAGLVAAPPAQAAANPYQRGPDPTESLLRAARGPFAVSEQSVSRLSVSGFGGGRIYYPTTTSQGTFGAIAISPGFTASWSSLAWLGPRLASHGFVVIGIETNTRLDQPDSRGRQLLAALDYLTQRSSVRNRVDASRLAVAGHSMGGGGTLEAAKSRTSLKAAIPIAPWNLDKTWPEVRTPTLIIGGELDSIAPVATHSIPFYNSLTNAREKAYLELNNASHFFPQFSNDTMAKFMISWMKRFIDDDTRYDQFLCPPPRAIGDISDYRDTCPHT"}}, "data": [{"substrate": "p-NP-C4", "experiment": "not given", "details": "pH 8.5; 25 °C", "units": {"Km": "µM", "kcat": "s⁻¹", "kcat/Km": "M⁻¹ s⁻¹"}, "values": [{"protein": "B1", "Km": 83, "kcat": 12.4, "kcat/Km": 149000}, {"protein": "B2", "Km": 88.8, "kcat": 2.3, "kcat/Km": 25900}]}, {"substrate": "pNPB", "experiment": "Proxy for plastic degradation [Km]", "details": "pH 8.5", "units": {"Proxy for plastic degradation": "µM"}, "values": [{"protein": "B1", "Proxy for plastic degradation": 83.1}, {"protein": "B2", "Proxy for plastic degradation": 88.8}]}, {"substrate": "pNPB", "experiment": "Proxy for plastic degradation [kcat] (s⁻¹)", "details": "pH 8.5", "values": [{"protein": "B1", "Proxy for plastic degradation": 12.4}, {"protein": "B2", "Proxy for plastic degradation": 2.3}]}, {"substrate": "pNPB", "experiment": "Proxy for plastic degradation [kcat] (s⁻¹)", "details": "pH 8.5; 25 °C", "values": [{"protein": "B1", "Proxy for plastic degradation": 12.4}, {"protein": "B2", "Proxy for plastic degradation": 2.3}]}, {"substrate": "pNPB", "experiment": "Proxy for plastic degradation [Residual activity]", "details": "pH 8.5; 50 °C; 0 h", "units": {"Proxy for plastic degradation": "%"}, "values": [{"protein": "B1", "Proxy for plastic degradation": 100}, {"protein": "B2", "Proxy for plastic degradation": 100}]}, {"substrate": "pNPB", "experiment": "Proxy for plastic degradation [Residual activity]", "details": "pH 8.5; 50 °C; 10 h", "units": {"Proxy for plastic degradation": "%"}, "values": [{"protein": "B1", "Proxy for plastic degradation": 85}, {"protein": "B2", "Proxy for plastic degradation": 100}]}, {"substrate": "pNPB", "experiment": "Proxy for plastic degradation [Residual activity]", "details": "pH 8.5; 50 °C; 20 h", "units": {"Proxy for plastic degradation": "%"}, "values": [{"protein": "B1", "Proxy for plastic degradation": 75}, {"protein": "B2", "Proxy for plastic degradation": 105}]}, {"substrate": "pNPB", "experiment": "Proxy for plastic degradation [Residual activity]", "details": "pH 8.5; 50 °C; 30 h", "units": {"Proxy for plastic degradation": "%"}, "values": [{"protein": "B1", "Proxy for plastic degradation": 70}, {"protein": "B2", "Proxy for plastic degradation": 110}]}, {"substrate": "pNPB", "experiment": "Proxy for plastic degradation [Residual activity]", "details": "pH 8.5; 50 °C; 45 h", "units": {"Proxy for plastic degradation": "%"}, "values": [{"protein": "B1", "Proxy for plastic degradation": 45}, {"protein": "B2", "Proxy for plastic degradation": 115}]}, {"substrate": "pNPB", "experiment": "Proxy for plastic degradation [Residual activity]", "details": "pH 8.5; 50 °C; 60 h", "units": {"Proxy for plastic degradation": "%"}, "values": [{"protein": "B1", "Proxy for plastic degradation": 40}, {"protein": "B2", "Proxy for plastic degradation": 114}]}, {"substrate": "pNPB", "experiment": "Proxy for plastic degradation [Residual activity]", "details": "pH 8.5; 55 °C; 0 h", "units": {"Proxy for plastic degradation": "%"}, "values": [{"protein": "B1", "Proxy for plastic degradation": 100}, {"protein": "B2", "Proxy for plastic degradation": 100}]}, {"substrate": "pNPB", "experiment": "Proxy for plastic degradation [Residual activity]", "details": "pH 8.5; 55 °C; 10 h", "units": {"Proxy for plastic degradation": "%"}, "values": [{"protein": "B1", "Proxy for plastic degradation": 15}, {"protein": "B2", "Proxy for plastic degradation": 103}]}, {"substrate": "pNPB", "experiment": "Proxy for plastic degradation [Residual activity]", "details": "pH 8.5; 55 °C; 20 h", "units": {"Proxy for plastic degradation": "%"}, "values": [{"protein": "B1", "Proxy for plastic degradation": 15}, {"protein": "B2", "Proxy for plastic degradation": 95}]}, {"substrate": "pNPB", "experiment": "Proxy for plastic degradation [Residual activity]", "details": "pH 8.5; 55 °C; 30 h", "units": {"Proxy for plastic degradation": "%"}, "values": [{"protein": "B1", "Proxy for plastic degradation": 15}, {"protein": "B2", "Proxy for plastic degradation": 90}]}, {"substrate": "pNPB", "experiment": "Proxy for plastic degradation [Residual activity]", "details": "pH 8.5; 55 °C; 45 h", "units": {"Proxy for plastic degradation": "%"}, "values": [{"protein": "B1", "Proxy for plastic degradation": 14}, {"protein": "B2", "Proxy for plastic degradation": 89}]}, {"substrate": "pNPB", "experiment": "Proxy for plastic degradation [Residual activity]", "details": "pH 8.5; 55 °C; 60 h", "units": {"Proxy for plastic degradation": "%"}, "values": [{"protein": "B1", "Proxy for plastic degradation": 15}, {"protein": "B2", "Proxy for plastic degradation": 80}]}, {"substrate": "pNPB", "experiment": "Proxy for plastic degradation [Residual activity]", "details": "pH 8.5; 60 °C; 0 h", "units": {"Proxy for plastic degradation": "%"}, "values": [{"protein": "B1", "Proxy for plastic degradation": 100}, {"protein": "B2", "Proxy for plastic degradation": 100}]}, {"substrate": "pNPB", "experiment": "Proxy for plastic degradation [Residual activity]", "details": "pH 8.5; 60 °C; 10 h", "units": {"Proxy for plastic degradation": "%"}, "values": [{"protein": "B1", "Proxy for plastic degradation": 15}, {"protein": "B2", "Proxy for plastic degradation": 35}]}, {"substrate": "pNPB", "experiment": "Proxy for plastic degradation [Residual activity]", "details": "pH 8.5; 60 °C; 20 h", "units": {"Proxy for plastic degradation": "%"}, "values": [{"protein": "B1", "Proxy for plastic degradation": 15}, {"protein": "B2", "Proxy for plastic degradation": 32}]}, {"substrate": "pNPB", "experiment": "Proxy for plastic degradation [Residual activity]", "details": "pH 8.5; 60 °C; 30 h", "units": {"Proxy for plastic degradation": "%"}, "values": [{"protein": "B1", "Proxy for plastic degradation": 15}, {"protein": "B2", "Proxy for plastic degradation": 30}]}, {"substrate": "pNPB", "experiment": "Proxy for plastic degradation [Residual activity]", "details": "pH 8.5; 60 °C; 45 h", "units": {"Proxy for plastic degradation": "%"}, "values": [{"protein": "B1", "Proxy for plastic degradation": 15}, {"protein": "B2", "Proxy for plastic degradation": 25}]}, {"substrate": "pNPB", "experiment": "Proxy for plastic degradation [Residual activity]", "details": "pH 8.5; 60 °C; 60 h", "units": {"Proxy for plastic degradation": "%"}, "values": [{"protein": "B1", "Proxy for plastic degradation": 14}, {"protein": "B2", "Proxy for plastic degradation": 25}]}, {"substrate": "pNPB", "experiment": "Proxy for plastic degradation [Relative activity]", "details": "30 °C", "units": {"Proxy for plastic degradation": "%"}, "values": [{"protein": "B1", "Proxy for plastic degradation": 25}, {"protein": "B2", "Proxy for plastic degradation": 35}]}, {"substrate": "pNPB", "experiment": "Proxy for plastic degradation [Relative activity]", "details": "40 °C", "units": {"Proxy for plastic degradation": "%"}, "values": [{"protein": "B1", "Proxy for plastic degradation": 40}, {"protein": "B2", "Proxy for plastic degradation": 50}]}, {"substrate": "pNPB", "experiment": "Proxy for plastic degradation [Relative activity]", "details": "50 °C", "units": {"Proxy for plastic degradation": "%"}, "values": [{"protein": "B1", "Proxy for plastic degradation": 75}, {"protein": "B2", "Proxy for plastic degradation": 70}]}, {"substrate": "pNPB", "experiment": "Proxy for plastic degradation [Relative activity]", "details": "55 °C", "units": {"Proxy for plastic degradation": "%"}, "values": [{"protein": "B1", "Proxy for plastic degradation": 100}, {"protein": "B2", "Proxy for plastic degradation": 85}]}, {"substrate": "pNPB", "experiment": "Proxy for plastic degradation [Relative activity]", "details": "60 °C", "units": {"Proxy for plastic degradation": "%"}, "values": [{"protein": "B1", "Proxy for plastic degradation": 80}, {"protein": "B2", "Proxy for plastic degradation": 100}]}, {"substrate": "pNPB", "experiment": "Proxy for plastic degradation [Relative activity]", "details": "65 °C", "units": {"Proxy for plastic degradation": "%"}, "values": [{"protein": "B1", "Proxy for plastic degradation": 50}, {"protein": "B2", "Proxy for plastic degradation": 70}]}, {"substrate": "pNPB", "experiment": "Proxy for plastic degradation [Relative activity]", "details": "70 °C", "units": {"Proxy for plastic degradation": "%"}, "values": [{"protein": "B1", "Proxy for plastic degradation": 10}, {"protein": "B2", "Proxy for plastic degradation": 35}]}, {"substrate": "pNPB", "experiment": "Proxy for plastic degradation [Relative activity]", "details": "pH 6.5", "units": {"Proxy for plastic degradation": "%"}, "values": [{"protein": "B1", "Proxy for plastic degradation": 10}, {"protein": "B2", "Proxy for plastic degradation": 10}]}, {"substrate": "pNPB", "experiment": "Proxy for plastic degradation [Relative activity]", "details": "pH 7", "units": {"Proxy for plastic degradation": "%"}, "values": [{"protein": "B1", "Proxy for plastic degradation": 22}, {"protein": "B2", "Proxy for plastic degradation": 22}]}, {"substrate": "pNPB", "experiment": "Proxy for plastic degradation [Relative activity]", "details": "pH 7.5", "units": {"Proxy for plastic degradation": "%"}, "values": [{"protein": "B1", "Proxy for plastic degradation": 55}, {"protein": "B2", "Proxy for plastic degradation": 50}]}, {"substrate": "pNPB", "experiment": "Proxy for plastic degradation [Relative activity]", "details": "pH 8", "units": {"Proxy for plastic degradation": "%"}, "values": [{"protein": "B1", "Proxy for plastic degradation": 95}, {"protein": "B2", "Proxy for plastic degradation": 85}]}, {"substrate": "pNPB", "experiment": "Proxy for plastic degradation [Relative activity]", "details": "pH 8.5", "units": {"Proxy for plastic degradation": "%"}, "values": [{"protein": "B1", "Proxy for plastic degradation": 100}, {"protein": "B2", "Proxy for plastic degradation": 100}]}, {"substrate": "pNPB", "experiment": "Proxy for plastic degradation [Relative activity]", "details": "pH 9", "units": {"Proxy for plastic degradation": "%"}, "values": [{"protein": "B1", "Proxy for plastic degradation": 90}, {"protein": "B2", "Proxy for plastic degradation": 95}]}, {"substrate": "pNPB", "experiment": "Proxy for plastic degradation [Relative activity]", "details": "pH 9.5", "units": {"Proxy for plastic degradation": "%"}, "values": [{"protein": "B1", "Proxy for plastic degradation": 65}, {"protein": "B2", "Proxy for plastic degradation": 75}]}]}
